What was measured:
Test in all cases: receptor inhibition assay at 10 µM Compound A, ratio relative to a control compound
[1] = biological target: Muscarine M1 receptor
Protocol: (§1) The inhibitory action of Compound A against various receptors listed in Table 2 was examined to evaluate the specificity of Compound A. The activities of the receptors were measured by using an appropriate assay system according to the property of the respective receptors. Further, the evaluation results of Compound A were calculated as an inhibition ratio at a final concentration of 10 μM. Here, the inhibition ratio was calculated based on a value of a control compound in each assay. As is apparent from the results shown in Table 2, it was confirmed that Compound A is specific to an MCH receptor. Incidentally, examination was carried out with regard to 173 kinds of physiologically functional proteins including the receptors shown in Table 2, however, the affinity thereof could not be found other than the MCH receptors, and only major receptors are shown in Table 2.

[2] = biological target: Neuropeptide Y1 receptor
Protocol: as §1

[3] = biological target: Glutamate AMPA receptor
Protocol: as §1

[4] = biological target: Histamine H3 receptor
Protocol: as §1

Inhibition ratio [1]: 0 | Inhibition ratio [2]: 17 | Inhibition ratio [3]: 8 | Inhibition ratio [4]: -6
B1: Compound A (peptide)
peptide: RCMXRVYXC
modifications: N-terminal acetyl on Arg 1 (printed Arg-C(=O)CH3); C-terminal amide on Cys 9 (printed H2N-Cys); X at positions 4 and 8 = Ava (5-aminovaleric acid); the two Cys residues (2 and 9) are bound to each other through a -SS- bond
notes: Synthetic cyclic peptide with two non-natural Ava residues; The direction of the printed formula is interpreted; also called MCH1R antagonist; H2N-Cys-Ava-Tyr-Val-Arg-Ava-Met-Cys-Arg-C(=O)CH3

— patent publication US20100184648A1 (published 2010)
